This is an account of results in article PMC11051671 (Science Advances, 2024).

The data set concerns the molecule itself. The experiment in a line: cryo-EM structure.

B1: hZnT1-D47N/D255N double mutant (natural protein, human, UniProt Q9Y6M5 1-507, looked up)
chain: MGCWGRNRGRLLCMLALTFMFMVLEVVVSRVTSSLAMLSDSFHMLSNVLALVVALVAERFARRTHATQKNTFGWIRAEVMGALVNAIFLTGLCFAILLEAIERFIEPHEMQQPLVVLGVGVAGLLVNVLGLCLFHHHSGFSQDSGHGHSHGGHGHGHGLPKGPRVKSTRPGSSDINVAPGEQGPDQEETNTLVANTSNSNGLKLDPADPENPRSGDTVEVQVNGNLVREPDHMELEEDRAGQLNMRGVFLHVLGNALGSVIVVVNALVFYFSWKGCSEGDFCVNPCFPDPCKAFVEIINSTHASVYEAGPCWVLYLDPTLCVVMVCILLYTTYPLLKESALILLQTVPKQIDIRNLIKELRNVEGVEEVHELHVWQLAGSRIIATAHIKCEDPTSYMEVAKTIKDVFHNHGIHATTIQPEFASVGSKSSVVPCELACRTQCALKQCCGTLPQAPSGKDAEKTPAVSISCLELSNNLEKKPRRTKAENIPAVVIEIKNMPNKQPESSL
For B1, the “stoichiometry N” value amounted to 2.
